Test: soluble on expression in E. coli; label from the status in PepcDB or PDB records
For “MNSQQDLTMHNRSAAILLRPAAALYGMVMSLRNCLYDQGIFKSWHSPIPVVSVGNITTGGTGKTPLVDWIVKFYEASGIATAIVSRGYGRRTKGVQLVSDGGRLLLGSRDAGDETAMLAARNPRTIVVVAEKRVEGVQFLMHQFADRLPGVIVLDDAFQHRKIARDLDIVVVNAGAPEEIDAMLPAGRLREPLRGLRRAHLIILGKITDDANSATLLQTLRETGKPVIRSKIKPGKLIHVDGSENETNESVKTLAFAGIGAPEGFLHSLKTAGIKIAATKFFRDHEPYTESAIRSIIGEAKRQGLVPVTTEKDWFRIADEPELAEMLRQVGCRYLTITPEFPDGTQELERQLLDVLKRLEHHHHHH”, the “soluble on expression in E. coli” value was “not soluble”.
In the case of “MKTLSPAVITLLWRQDAAEFYFSRLSHLPWAMLLHSGYADHPYSRFDIVVAEPICTLTTFGKETVVSESEKRTTTTDDPLQVLQQVLDRADIRPTHNEDLPFQGGALGLFGYDLGRRFESLPEIAEQDIVLPDMAVGIYDWALIVDHQRHTVSLLSHNDVNARRAWLESQQFSPQEDFTLTSDWQSNMTREQYGEKFRQVQEYLHSGDCYQVNLAQRFHATYSGDEWQAFLQLNQANRAPFSAFLRLEQGAILSLSPERFILCDNSEIQTRPIKGTLPRLPDPQEDSKQAVKLANSAKDRAENLMIVDLMRNDIGRVAVAGSVKVPELFVVEPFPAVHHLVSTITAQLPEQLHASDLLRAAFPGGSITGAPKVRAMEIIDELEPQRRNAWCGSIGYLSFCGNMDTSITIRTLTAINGQIFCSAGGGIVADSQEEAEYQETFDKVNRILKQLEK”, the “soluble on expression in E. coli” value is reported as “soluble”.
For “MSFLISFDKSKKHPAHLQLANNLKIALALEYASKNLKPEVDNDNAAMELRNTKEPFLLFDANAILRYVMDDFEGQTSDKYQFALASLQNLLYHKELPQQHVEVLTNKAIENYLVELKEPLTTTDLILFANVYALNSSLVHSKFPELPSKVHNAVALAKKH”, the “soluble on expression in E. coli” value was “soluble”.
In the case of “MAHHHHHHMSSPERGASPPPAEEDKKEKRVIIILEGAHLQLIETKRYIYELANSMKHKHLLRDKKKEEEIRNFRPDILHQCLIHLLESALNKYGLLQVYIKTHDNQLFFVSSNLKIPKTYDQFESLMVTFLRKYKIKANEKNLCLLKFLKNDYNAILPINGKKIGLSVKGRKVHLPDYVQNFQNENMPVTFFIGAVAYSNPITKLENLDDNISISEFSLSAATCCSTICSEFENLWGVF”, the “soluble on expression in E. coli” value is reported as “soluble”.
For “MSLRLEDIQAFLNVVELGSISAAAERMSLSKSVISKRVSDLERHLGVRLLYRSTRNVEPTEAGGFFYKSAKASLQDLNNAAESVALRENDLCGELRVMAPMSFGTLWLGPLVMEFMARNPRLEVVLQLDDRIVDFEKEGYDLAIRITRLQDSSLIARQLGTSRRVVCCSPEYLERHGPLQRIEDILCHPCIGYSHNTPSQLWSFEPRVAGEPARMITPRGRFNTNNGQTMRDAAVRGLGLAMLPLFIAAEDLAAGRLVEALPQERPLDDLIYAMYSRAATLSPKVKLFVQFLQQALGSPPWGVR”, the “soluble on expression in E. coli” value was “not soluble”.
For “MLVDHLLARGATDVRALTNHPDKAQLPDSVTVVEGYLRRLGSLPAAFEGVDSLYLAPTPDTAPDALALAKQAGVRHVVDLSGPHDGHWGDVARAVEASGIEWTHLWPGEFMENAGILAPQITAGDTVREPYPTAANAPIAMDDIAEVAAVALLESGHVGASYELTGPETITRAELVRELGAALGRNIEYRQVSLDEAVDVLTPAMGEYARWY”, the “soluble on expression in E. coli” value was “not soluble”.
With “MSGEESMPDEEQKQSEEEEEMIRKRTLAMRKKVEEIMRNGAGLVRESNGLPKAGADYELYNSYPTFNTFMKRSEQRLNALMNKVTKSIGCAMRVPDVGSSVEHYTECVIEAQDNIAERAATLHEALKKAELDEIVKVPEFITKAAPTNRKTEAEVSAAMRTFSANIGTVLAEKFRERREEAAQMVVLEKPQKTYNISSDNSQAPFSSKLTVKHHAIEKRTGIVLHDDDESGRRDWISAETETEEEHPYIAEILHFKVPEAQLKSAECLKFTALKDTPLTMIDTKEKLEALTKTLNSVKEFAVDLEHHQMRSYLGLTCLIQISTRDEDFIIDPFPIWDHVGMLNEPFANPRILKVFHGSDSDVLWLQRDYGVHVVNLFDTYVAMKKLKYPKFSLAYLTLRFADVVLDKQYQLADWRARPLRNAMINYAREDTHYLLYSYDMLREQLLKQDTKDLANVYSESSDLCIKVYKKPVFNPKGYLTEIKFRFTLNTRQDYALTHLFKWRDVVARAEDESPHFVLPNHMMLSLSETLPRDVGGIYACCNPLPYFVKQRTGDILKIIVEARDVKLEKVGLSAKERNDAQEARGVMNDTMDHITSVLKSKIDFSHTRFDEERGEIYIDKTDEGMDIELKDHKESLLSVLQTAEIPSVETMIVVEKGKKSDNQKVKKLLNELDKFVTPFECYQMMMITKEKQEEEERKEAERKKLEEGDLPKTMFSHHDAPINRKPEFDAKLLNVDTLKLVPDDPNKPKDPEPSPMEESSSEPQIFDPSRFTDDQLLSKKAMKRKRDAARRNIDVSVVLGESSSSSDPKKKKSDDDAPVEDFDYEKADSSAFEKPVRDNNADFDPFHQKYRLKNKTKKNMAMKKSSNRQGTINYKK” the “soluble on expression in E. coli” value was “not soluble”.
With “MGSDKIHHHHHHMTILHSTDFFKAGISTVAIEPRLPQSAFPEHHHDFHEIVIVEQGSGIHVFNGQPYTIGGGSVCFIRDHDRHLYEHTDNLCLTNVLYRAPDAFRFLAGVSQLLPQEQEGNYPSHWRVNQTVLQQVRHIVAQIEAVGSDTDTHAVASREILFMQLLVLLRKSSLAEEATNNDARLNQLLAWLEDHFAQEICWEEVAAQFSLSLRTLHRQLKQQTGLTPQRYLNRVRLMKARHLLRHSDESVTDIAYRCGFGDSNHFSTLFRREFDWSPRDIRQGRDAILQ” the “soluble on expression in E. coli” value was “not soluble”.
In the case of “MGSDKIHHHHHHMGQRIPVTLGNIAPLAVKPFRPGKLALVCEGGGQRGIFTAGVLDEFMRAGFNPFDLMLGTSAGAQNLSAYMCNQQGYARKVITRYTTSRQFFDPMRFVRGGNLIDLDWLVEATSQQMPLAMNYAEAQFALGKELWLCACRGDDYSASYFSPTPQTWLDLIRASSAIPGFYRSGVLLDGVSYLDGGVSDAIPVQEAARRGAQTIVVIRTVPSQMFYTPQWFKRMERWLGESSLQPLVNLVHHHETTYRAIQQFIEKPPGKLRIFEIYPQRPLRSMALGSRLPALLEDYKTGRQCGRYFLATVGKLLADQPPLLRHAPRIARPAPVVVPPVPVANEAPQATIIPAPQANDPSFDHEDLA”, the “soluble on expression in E. coli” value is reported as “not soluble”.
In the case of “MSTLLAILFLLPFYTFSLNKKPEEVLKGLYPSAEIEVEDIILTEEQVKEVEKLSGTKLNTRFVTFYIVKKDGKVLAYGYVDIHRVRTKPEAVLYVISPKGKIELIEVLAFHEPLEYLPPKNWLKLFEGKDINAPLRVKKDIPNVTGATLTARAITKNAKKVLALWQVLFGGKE”, the “soluble on expression in E. coli” value is reported as “not soluble”.
In the case of “LQEVGSTFNIEVSILKDQATIMIDTTGSSLFKRGYRVQKGGAPIKENMAAAILALSNWFPDKPLVDPTCGSGTFCIEAAMIGMNIAPGFNRSFAFEEWSWVDKDMVQQVRDDAEQEANYEIELDISGFDIDGRMIEIAKSNAEEAGLSDVITFKQMRLQDFRTDKVNGVVISNPPYGERLLDDKAVDILYNEMGQTFAPLKTWSKFILTSDELFELKYGQKADKKRKLYNGTLKVDLYQFYGERVKRHLI”, the “soluble on expression in E. coli” value is reported as “not soluble”.
In the case of “MMRGSHHHHHTDPISYIIRKADSVNKALDSAVPLREPLKIHEAMRYSLLAGGKRVRPVLCIAACELVGGEESLAMPAACAVEMIHTMSLIHDDVYGEDVAVLAGDALLSFAFEHLASATSSEVSPARVVRAVGELAKAIGTEGLVAGQVVDISNVGLEHLKFIHLHKTAALLEASAVLGGIIGGGSDEEIERLRKFARCIGLLFQVVDDILDVTIADKLTYPKLMGLEKSREFAEKLNTEARDQLLGFDSDKVAPLLALANYIANRQN”, the “soluble on expression in E. coli” value is reported as “soluble”.
In the case of “MGACPRFERASARGMIARNPIKQDPAMRNTQDDHSRFLSLVLRHQPETIGLQLDDQGWADIGELLARLAAKGRNLGRKQLEKIVLDNDKQRFAISEDGLRIRANQGHSIKIDLGLAACEPPDRLYHGTASRFLDAILAEGLRPGQRQHVHLSADGQTARKVGARHGKPVVLEIDARAMRQAGLAFYRSDNGVWLIDGVPPVFIRQTEARLEHHHHHH”, the “soluble on expression in E. coli” value is reported as “soluble”.
In the case of “MSLQTRPILVVGATGKTGSRVAAKLEAKGAAVRRGSRHAEIPFDWESPATWAPALSGVSRAYVTYFPDLAFPGAVEKLEAFTKVAAASGLDQIVLLSGRGEHHARLGEKVVETSGIPFTIVRAAWFAQNFSEGYLRDPVVAGVLPMPGGDIAEPIIDIDDIADVVVAALSEDGHAGQLYEVTGPRLMTFAEMAKVLSTATGRPIRHLPISFEDFHANVAAAGGEFVADVFTAIARETLDGRNAYVSDGVERALGRKPRDFAAFAAAAASQGLWTAAEGHHHHHH”, the “soluble on expression in E. coli” value is reported as “soluble”.
With “MAHHHHHHMQFGIKVEPYGYDKLVWLETDALKVGLTNYAASVASIQVYHPADNKWIEVNCGYPKNPEEAYADPDYMGATVGRCAGRVAGGVFTLDGVKYYTQKNRGENTCHCGDDAYHKKHWGMKLIETANVIGVRFNYTSPHMESGFPGEVKNYCTFTIDRSKPNALKTIYDSYITDNSPCDASPINVFSHTSFNLNGIPGQQDGEKNWVQPESVRNHWLRVPASRVAEADRMAIPTGEFLSVEGTGLDFRQGRVIGDCIDDVALLDRDPCGYDHPLAIDGWEKGKLMLHAEAKSPVTNICMKVYSTFPCMWVYTANNKPLPASGGPGQRYARWTGLLVGPQNFSDVANHYPKYPSCIVRRGERQYSETTINEFTIEQ” the “soluble on expression in E. coli” value was “soluble”.
In the case of “SASHQEQSYKAGETRGKAQEKTGEAMGTMGDKTQAAKDKTQETAQSAQQKAHETAQSAKDKTSQAAQTTQERAQESKDKTGSYMSETGEAIKNKAHDAAEYTKETAEAGKEKTSGILGQTGEQVKQMAMGATDAVKHTLGLRTDEGNKEHVSSAPSTTTTTTTRETQRK”, the “soluble on expression in E. coli” value is reported as “soluble”.
For “MELVSVAALAENRVIGRDGELPWPSIPADKKQYRSRVADDPVVLGRTTFESMRDDLPGSAQIVMSRSERSFSVDTAHRAASVEEAVDIAASLDAETAYVIGGAAIYALFQPHLDRMVLSRVPGEYEGDTYYPEWDAAEWELDAETDHEGFTLQEWVRSASSR”, the “soluble on expression in E. coli” value was “soluble”.
In the case of “MIQFNQVSKSYEDGTKAVDSLHLEIKKGEFFVLIGPSGCGKTTTMKMINRLIETTEGSILIDGKDIQQYNINELRWDIGYVLQQIALFPHMTIAENIAVVPEMRKWSKEKIKARVDELLQMVGLDPDVYRNRMPDELSGGQKQRIGVVRALAANPKIVLMDEPFSALDPLSREQLQKDIVQLQKKIQKTIVFVTHDMQEALSLGDRICIMKEGKVVQLDTPEGIIHNPKNEFVEEFIGNRGRPWYEGKSIEDVLPLDESIRIEGEALSLHSSLQEALVRLRADEVVPVEEKGRYVGALTSRHIVNYIVEQMKERG”, the “soluble on expression in E. coli” value is reported as “not soluble”.
For “MGSDKIHHHHHHAAAPAFSALGDTASSQARHIATVFPGRMTGTPPEMLSADYLRQQFALMGYQSDVRSFNTRYIYTDSNQRKNWHNATGSTVIAAHEGKVRQQIIIMAHLDTYAPQSDKDVENNLGGLTLQGIDDNAMGLGVLLELAEHLKNVPTRYGIRFIATSGEEEGRLGAQNLLQRMSEAEKKNTLLVINLDNLVVGDKLYFNSGRSTPASVRKLTRDRALAIARSKGIAAYTNPGLNPAYPKGTSCCNDASVFDNAGIPVLSVEATNWSLGKKDGYQQRSKSASFPQGTSWHDVQLDNQQYIDHALPGRIEHRGREVVKVMLPLVKELAKVEKKS”, the “soluble on expression in E. coli” value was “not soluble”.
With “MGSDKIHHHHHHMKKRFKYRTLEEMRWEAITLGIDLPLSGDFDVFRDLVDLGSKTIPNRFVDQPMEGNDAQLDGTPGPLTLRRYRKLAEGGAGVIWVEAIAVSREARGNDRQLMLTEETVNSFRSFVAEIKSVSLKTKNFEPYIVAQLTHPGRFGKNRKILFHDKFLDEKYGITEDFPLMSDEELDSLKEQYLRAAKFAKTAGFDAVDIKACHRYLLSELLAAHTREGKYGGSYENRTKLLKDIVRLVRKEVEIDITVRLNLSDFIPYPYGWGSTEEGTLDFTEPGRLLKELEELGVKIINVTASTPYLKPHINRPYDEMGKYNPPEHPIVGAMRLLNLAKLAKETLSKTLVVASGFTWFRQFAPYVAAGMLKNGWCDFVGFGRMTFAYPDYPKDILTKGELDPKKVCITCNKCAELKAAGESCGCVVRDGEVYLPIYRKMEESKKS” the “soluble on expression in E. coli” value was “not soluble”.
